# Test results: US20250215092A1 (ZHEJIANG NANOMAB TECHNOLOGY CENTER, published 2025)
# Numbering of substitutions follows the chain as printed.
# B1: E006 VHH-IgG4 antibody (antibody, V domains shown, not shown: a dimerising Fc or GST)
# VH: EVQLVESGGGLVQPGGSLRLSCTASGFTFDTYTTSWERQAPGKEREMVAVLATTGGKPYYVESVKGRFTISRDASETAVTLQMNNLKPEDTAVYYCKATSRSPVNPHNYSGQGTLVTVSS
# B2: E006.6 (VHH)
# VHH: B1 VH with T23A, T77N, K87R, P88A
# notes: Humanized VHH; also called humanized variant of E006
# B3: E006.4 (VHH)
# VHH: B1 VH with T23A, T77N, T80Y, N85S, K87R, P88A
# notes: as for B2
# B4: E006.2 (VHH)
# VHH: B1 VH with T23A, E76K, T77N, A78T, T80Y, N85S, K87R, P88A
# notes: as for B2
# B5: E006.8 (VHH)
# VHH: B1 VH with A49S, T77N, N85S, K87R, P88A
# notes: as for B2
# B6: E006.1 (VHH)
# VHH: B1 VH with T23A, A74N, E76K, T77N, A78T, T80Y, N85S, K87R, P88A
# notes: as for B2
# B7: E006.5 (VHH)
# VHH: B1 VH with T23A, T77N, T80Y, K87R, P88A
# notes: as for B2
# B8: E006.3 (VHH)
# VHH: B1 VH with T23A, T77N, A78T, T80Y, N85S, K87R, P88A
# notes: as for B2
# B9: E006.7 (VHH)
# VHH: B1 VH with T23A, A49S, T77N, T80Y, N85S, K87R, P88A
# notes: as for B2
# B10: E001 VHH-IgG4 antibody (antibody, V domains shown, not shown: a dimerising Fc or GST)
# VH: EVQLVESGGGLVQPGGSLRLSCTPSGSGFTIQAMTWYRQAPGKQRELVAIIHQGGSTDYSDSVRGRFTISRDNAKTAWYLQMNNLKPEDTAVYYCNVVPPLRVWGQGTQVTVSS
# B11: E009 VHH-IgG4 antibody (antibody, V domains shown, not shown: a dimerising Fc or GST)
# VH: QVQLVESGGGLVQPGGSLRLSCEASGRIDIIFTMGWYRQTPGNEREFVASVTNYNAKYADSVKGRFTISRENTENTAYLQMNSLKPEDTAIYVCHLNYASDYTEYDYYGQGTQVTVSS
# B12: E008.10 (VHH)
# VHH: EVQLVESGGGLVQPGGSLRLSCASSGLPLLDYAIGWFRQAPGKEREAVSAISISEGSTYYTDSVRGRFTISRDNSKNKVYLRMNSLRAEDTAVYYCAADKTDIGFWLLVGGAGGGEVRYEYWGQGTQVTVSS
# notes: Humanized VHH; also called humanized variant of E008
# Tests used:
# [1] = biological target: T1, EGFR on SKOV3 and Aspc-1 tumor cells (human, UniProt P00533); assay: flow cytometry on Aspc-1 tumor cells, anti-human IgG PE, MFI, curve fit; unit from the concentration axis and paragraph 62; no upper plateau within the range shown [table]
# T1 construct: endogenous, on the cell surface; the cell line is named under assay; also called tumor cell EGFR
# Experimental: (§1) Two kinds of tumor cells, SKOV3 and Aspc-1, expressing EGFR were respectively plated in 96 well plates, with 3×10⁵ cells per well, and then the tumor cells were incubated with gradient diluted VHH-IgG4 antibody. After incubation on ice for half an hour, anti human IgG PE (Jackson Immuno Research, Code: 109-117-008, Lot:145501) was added for incubation, and then CytoFLEX flow cytometry was used for detection. The EC50 of the antibody was calculated by curve fitting.
# [2] = biological target: T1, EGFR on SKOV3 and Aspc-1 tumor cells; assay: flow cytometry on SKOV3 tumor cells, anti-human IgG PE, MFI, curve fit; unit from the concentration axis and paragraph 62 [table]
# Experimental: as §1
# [3] = biological target: T2, Rhesus macaque EGFR Protein, His Tag (Acro, Cat #EGR-C52H1) (rhesus macaque, UniProt P55245 25-645); assay: ELISA, coated antigen 1 ug/mL, antibody 50 nM
# T2 construct: extracellular domain; Bought protein; also called Monkey EGFR; not shown: His tag
# Experimental: (§2) ELISA was used to identify the binding of VHH-IgG4 antibodies to the extracellular domains of mouse EGFR, monkey EGFR, and human EGFR proteins. The detection steps were as follows: Mouse EGFR Protein, His Tag (Acro, Cat #EGR-M5224) and Rhesus macaque EGFR Protein, His Tag (Acro, Cat #EGR-C52H1) were diluted to 1 μg/mL with phosphate buffer, and 100 μL of each dilution was added to a 96-well ELISA plate and coated overnight at 4° C. The next day, the plates were washed twice with PBST (containing 0.5% TWEEN-20) and then blocked with 3% BSA at 37° C. for 1.5 h, followed by two washes with PBST. VHH-IgG4 antibodies were diluted to 50 nM, and 100 μL of the dilution was added to each well and incubated at 37° C. for 1 h. The plates were then washed three times with PBST, and 100 μL of HRP-labeled goat anti-human IgG Fc antibody (1:10000, Bethyl) was added to each well and incubated at 37° C. for another 40 min. After washing the plates four times with PBST, 100 μL of TMB substrate was added to each well, and the reaction was allowed to proceed for 3-5 min. The reaction was stopped by adding 100 μL of 3N hydrochloric acid per well. After stopping the reaction, the optical density at 450/650 nm was measured using a Tecan microplate reader.
# [4] = biological target: T3, Mouse EGFR Protein, His Tag (Acro, Cat #EGR-M5224) (mouse, UniProt Q01279 25-647); assay: ELISA, coated antigen 1 ug/mL, antibody 50 nM
# T3 construct: extracellular domain; Bought protein; not shown: His tag
# Experimental: as §2
# [5] = biological target: T4, human EGFR.His antigen (Acro, Cat #EGR-H522a) (human, UniProt P00533 25-645); assay: SPR, antibody captured on protein A, EGFR.His in flow
# T4 construct: extracellular domain; Bought protein; also called EGFR his tag protein; full-length EGFR extracellular domain protein; not shown: His tag
# Experimental: The binding kinetics and affinity of candidate antibody to human EGFR.His antigen were determined using surface plasmon resonance (SPR). The purified antibody was flowed through the sensor chips pre-immobilized with protein A, and the antibody was captured by protein A. Then five different concentrations of EGFR.His protein were used as the mobile phase, and the binding time and dissociation time were […], respectively. The binding rate (kon), dissociation rate (koff), and equilibrium constant (kD) were analyzed using Biacore Evaluation Software 2.0 (GE). EC225, an antibody that binds to region III of human EGFR, was selected as a positive control (sequence source https.//go.drugbank.com/drugs/DB00002).
# [6] = biological target: T5, EGFR-D1D2 (L25-A310, P00533-1 (uniprot)) his tag antigen (human, UniProt P00533 25-310); assay: ELISA: EGFR-D1D2 his tag antigen coated at 0.5 µg/mL, antibody at 2000, 200, 20, 2 nM, HRP goat anti-human IgG Fc, OD450
# T5 construct: range 25-310; also called I+II domain protein; EGFR-D1D2 protein; not shown: His tag
# Experimental: (§3) (2) Protein Binding Epitope Analysis: ELISA was used to determine the binding of VHH-IgG4 antibody to each domain of EGFR extracellular protein. Briefly, EGFR his tag protein, and EGFR-V3-his tag antigen protein were diluted to 1 μg/mL, EGFR-D1D2 (L25-A310, P00533-1 (uniprot)), and EGFR-D4 (F481-S645, P00533-1 (uniprot)) his tag antigen were diluted to 0.5 μg/mL, and each well of an ELISA plate was coated with […] antigen and incubated overnight at 4° C. The next day, the plates were washed twice with PBST (added with 0.5% TWEEN-20), then blocked with 3% BSA at 37° C. for 1.5 h, and then washed twice with PBST. Then, the antibody to be tested was diluted to 50 nM, 5 nM, 0.5 nM, 0.05 nM, and added to the wells coated with EGFR his tag protein or EGFR-V3-his tag antigen at 100 µL/well, respectively. The antibody was diluted to 2000 nM, 200 nM, 20 nM, 2 nM, and added to the wells coated with EGFR his tag protein or EGFR-V3-his tag antigen at 100 µL/well, respectively. The ELISA plates were incubated at 37° C. for 1 h. The plates were then washed three times with PBST, and then 100 μL HRP labeled Goat anti human IgG Fc antibody (1:10000, Bethyl) was added into each well, and incubated at 37° C. for another 40 min. After washing the plates four times with PBST, 100 μL of TMB substrate was added to each well, and the reaction was allowed to proceed for 3-5 min. The reaction was stopped by adding 100 μL of 3N hydrochloric acid per well. After stopping the reaction, the optical density at 450/650 nm was measured using a Tecan microplate reader.
# [7] = biological target: T6, Region III of EGFR expressed on HEK293T cells (human, UniProt P00533); assay: flow cytometry on HEK293T cells expressing EGFR region III, anti-human IgG PE, MFI, curve fit; unit from the concentration axis and paragraph 62 [table]
# T6 construct: also called HEK293T EGFR-III cells; stably transformed cell line 293T overexpressing EGFR III region protein
# Experimental: HEK293T cells that express Region III of EGFR (i.e., HEK293T […] cells) were plated in a 96-well plate with 3×10⁵ cells/well, and then HEK293T […] cells were incubated with gradient diluted VHH-IgG4 antibody. After incubation for half an hour, anti-human IgG PE (Jackson Immuno Research, Code: 109-117-008, Lot:145501) as the secondary antibody for detection was added for incubation, and then CytoFLEX flow cytometer was used for detection. The EC50 of the antibody was calculated by curve fitting with Graphprism8.0 software. Isotype 1 in the figure is a negative control, and its amino acid sequence is shown as SEQ ID NO: 2 in CN106046152A.
# [8] = biological target: T4, human EGFR.His antigen (Acro, Cat …); assay: SPR, human EGFR.His
# [9] = biological target: T1, EGFR on SKOV3 and Aspc-1 tumor cells; assay: flow cytometry on SKOV3 tumor cells, anti-human IgG PE, MFI, curve fit; unit from the concentration axis and paragraph 62; the curve still rises at the highest concentration (MFI about 9700 at about 250 nM) [table]
# Experimental: as §1
# [10] = biological target: T1, EGFR on SKOV3 and Aspc-1 tumor cells; assay: flow cytometry on Aspc-1 tumor cells, anti-human IgG PE, MFI, curve fit; unit from the concentration axis and paragraph 62; the curve still rises at the highest concentration (MFI about 9000 at about 250 nM) [table]
# Experimental: as §1
# [11] = biological target: T4, human EGFR.His antigen (Acro, Cat …); assay: ELISA: EGFR his tag protein coated at 1 µg/mL, antibody at 50, 5, 0.5, 0.05 nM, HRP goat anti-human IgG Fc, OD450
# Experimental: as §3, with “After washing the plates four times with PBST, 100 μL of TMB substrate was added to each well, and the reaction was allowed to proceed for 3-5 min. The reaction was stopped by adding 100 μL of 3N hydrochloric acid per well.” left out
# [12] = biological target: T7, EGFR-D4 (F481-S645, P00533-1 (uniprot)) his tag antigen (human, UniProt P00533 481-645); assay: ELISA: EGFR-D4 his tag antigen coated at 0.5 µg/mL, antibody at 2000, 200, 20, 2 nM, HRP goat anti-human IgG Fc, OD450
# T7 construct: range 481-645; also called IV domain protein; EGFR-D4 protein; not shown: His tag
# Experimental: as §3
Binder,Kd [8] [µM],koff [8] [s⁻¹],kon [8] [M⁻¹ s⁻¹],also measured
B1,,,,EC50 [1]: 0.012 µM; EC50 [2]: 0.011 µM; OD450 [3]: 3.3 OD450; OD450 [4]: 3.13 OD450; Kd [5]: 0.00682 µM; koff [5]: 0.000255 s⁻¹; kon [5]: 37400 M⁻¹ s⁻¹; binding result [6]: no binding (tested: 2000 nM); EC50 [7]: 0.0005 µM
B2,0.011,0.00032,29000,
B3,0.013,0.00032,25000,
B4,0.041,0.00072,17000,
B5,0.015,0.0004,27000,
B6,0.039,0.00079,20000,
B7,0.013,0.00031,24000,
B8,0.018,0.0004,22000,
B9,0.014,0.00033,24000,
B10,,,,OD450 [3]: 3.3 OD450; OD450 [4]: 0.76 OD450; EC50 [9]: 0.074 µM; Kd [5]: 0.000206 µM; koff [5]: 1.2e-05 s⁻¹; kon [5]: 57900 M⁻¹ s⁻¹; binding result [6]: no binding (tested: 2000 nM); EC50 [10]: 0.058 µM; EC50 [7]: 0.00032 µM
B11,,,,OD450 [3]: 3.36 OD450; OD450 [4]: 0.08 OD450; binding result [6]: binds; binding result [11]: binds; binding result [12]: no binding (tested: 2000 nM)
B12,0.082,0.029,360000,
